Source: publication PMC2174254
Read-outs that look alike come from different tables or passages of the source. Each block holds one substance with its values, some of them ahead of it.

Columns and labels:
Experiment in all cases: cross-linking
[1] = biological target: PDI deletion mutant Δ222–302 (S. cerevisiae) (UniProt P17967)
[2] = biological target: PDI deletion mutant Δ222–302 (S. cerevisiae) (UniProt P17967); remark: listed apart in the source
[3] = biological target: PDI deletion mutant Δ252–277 (S. cerevisiae) (UniProt P17967)
[4] = biological target: Protein disulfide isomerase (PDI), wild type, S. cerevisiae (S. cerevisiae) (UniProt P17967)
[5] = biological target: BiP, heavy chain binding protein (S. cerevisiae (endogenous in yeast microsomes)) (UniProt P16474)
Sequence of BiP, heavy chain binding protein (S. cerevisiae (endogenous in yeast microsomes)) (P16474 43-682): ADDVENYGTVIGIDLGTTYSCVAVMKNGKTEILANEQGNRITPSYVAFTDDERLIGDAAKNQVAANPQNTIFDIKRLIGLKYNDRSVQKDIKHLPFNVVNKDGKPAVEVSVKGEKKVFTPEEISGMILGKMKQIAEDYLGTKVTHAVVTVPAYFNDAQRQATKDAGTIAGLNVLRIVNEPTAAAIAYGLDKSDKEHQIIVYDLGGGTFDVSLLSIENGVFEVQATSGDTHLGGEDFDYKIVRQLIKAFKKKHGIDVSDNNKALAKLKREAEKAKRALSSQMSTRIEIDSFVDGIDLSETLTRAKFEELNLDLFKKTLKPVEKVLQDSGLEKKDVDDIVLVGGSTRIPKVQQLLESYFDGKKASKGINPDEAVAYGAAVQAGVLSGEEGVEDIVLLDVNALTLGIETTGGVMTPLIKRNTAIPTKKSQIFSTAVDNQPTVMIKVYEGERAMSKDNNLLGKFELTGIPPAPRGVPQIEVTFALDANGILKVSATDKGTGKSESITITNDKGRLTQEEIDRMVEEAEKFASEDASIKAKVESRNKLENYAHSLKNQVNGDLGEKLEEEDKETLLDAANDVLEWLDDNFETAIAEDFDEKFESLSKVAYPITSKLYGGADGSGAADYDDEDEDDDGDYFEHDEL

peptide binding, percent of wild-type (% of wild-type) [1]: 13 | peptide binding, percent of wild-type (% of wild-type) [2]: 14 | peptide binding, percent of wild-type (% of wild-type) [3]: 38
Substance: N-benzoyl-NYT-amide, synthetic glycosylation acceptor peptide

fold lower intensity of the cross-linking product than that with Δgpαf [4]: 8 fold
Substance: gpαf, glycopro-α factor (wild type) (natural protein)

fold lower affinity than wild-type PDI [2]: 5 fold | intensity of the cross-linking product, percent of wild-type (% of wild-type) [2]: 43 | percent of the Δgpαf in the sample cross-linked to PDI [4]: 7% | stoichiometry N [4]: 1 | percent of the Δgpαf in the sample cross-linked to BiP [5]: 10% | Δgpαf bound to BiP in sec61-32 microsomes relative to wild-type microsomes [5]: 2.1 fold | Δgpαf bound to BiP in sec61-41 microsomes relative to wild-type microsomes [5]: 1.3 fold | fold lower affinity than wild-type PDI [3]: 9 fold | intensity of the cross-linking product, percent of wild-type (% of wild-type) [3]: 24
Substance: Δgpαf, mutant glycosylation site-free pro-α factor (natural protein)
